Patent US20200173986A1 (HUGEL, published 2020)

B1: D6 IgG (antibody, V domains shown)
VH: EVQLQQSGPELVKPGASVKISCKASGYTFTDYNMHWVKQSHGKSLEWIGYIYPYNGDTGYNQKFKSKATLTVDNSSSTAYMELRSLTSEDSAVYYCVRSGDYWGQGTTLTVSS
VL: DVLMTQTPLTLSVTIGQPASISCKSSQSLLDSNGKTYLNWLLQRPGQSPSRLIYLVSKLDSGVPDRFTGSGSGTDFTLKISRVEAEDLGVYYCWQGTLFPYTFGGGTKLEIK
B2: D2 IgG (antibody, V domains shown)
VH: DVKLQESGPGLVKPSQSLSLTCSVTGYSITSGYYWNWIRQFPGNKLEWMGYIRYDGSNNYNPSLKNRISITRDTSKNQFFLKLNSVTTEDTASYYCARDRDSSYYFDYWGQGTALTVSS
VL: DIVMTQSSSYLSVSLGGRVTITCKASDHINNWLAWYQQKPGNAPRLLISDTTSLETGVPSRFSGSGSGKDYTLSITSLQTEDVATYYCQQYWSAPPTFGGGTKLEIK
B3: C7 IgG (antibody, V domains shown)
VH: QVQLVETGGGLVQPKGSLKLSCAASGFTFNTNAMNWVRQAPGKGLEWVARIRSKSNNYATYYADSVKDRFTISRDDSQSLLYLQMNNLKTEDTAMYYCVYGRSYGGLSYWGQGTLVTVSA
VL: DIVMTQSPASLAVSLGQRATISCRASKSVSSSGYSYMHWYQQKPGQPPKLLIYLASNLESGVPARFSGSGSGTDFTLNIHPVEEEDAATYYCQHSRELPLTFGAGTKLELK
notes: also called C7 IgG2a
B4: C24 IgG (antibody, V domains shown)
VH: EVKLVESGGGLVQPKGSLKLSCAASGYTFNTYAMNWVRQAPGKGLEWVARIRSKSNNYTTYYADSVKDRFTISRDDSQSMLYLQINNLKTEDTAMYYCVGQILYYYVGSPAWFAYWGQGTLVTVSA
VL: DIVMTQSPASLAVSLGQRATISCRASKSVSTSGYSYMHWYQQKPGQPPKLLIFLASNLESGVPARFSGSGSGTDFTLNIHPVEEEDAATYYCQHSRELPWTFGGGTKLEIK
B5: C16 IgG (antibody, V domains shown)
VH: EVQLQQSGAELARPGASVQMSCKAFGYTFTNYTMHWVRQRPGQGLEWIGFINPSSDYTNYNQKFKDKATLSADKSSSTAYMQLSSLTSEDSAVYYCARRIFYNGRTYAAMDYWGQGTSVTVSS
VL: DIVMTQSPASLAVSLGQRATISCRASKSVSSSGYSYMHWYQQKPGQPPKLLIYLASNLESGVPARFSGSGSGTDFTLNIHPVEEEDAATYYCQHSRELPLTFGAGTKLELK
notes: also called C16 IgG1
B6: C4 IgG (antibody, V domains shown)
VH: DVKLQESGPGLVKPSQSLSLTCTVTGYSITSDYAWNWIRQFPGNKLEWMGYISYSVGTRYNPSLKSRISITRDTSKNQFFLLLKSVTNEDTATYFCARKGEYGFAYWGQGTLVTVSA
VL: DIVMTQSPASLAVSLGQRATISCRASKSVSTSGYSYMHWYQQKPGQPPKLLIYLASNLESGVPARFSGSGSGTDFTLNIHPVEEEDAATYYCQHSRELPLTFGAGTKLELK
B7: C14 IgG (antibody, V domains shown)
VH: EVKLVESGGGLVQPKGSLKLSCAASGFTFNTNAMNWVRQAPGKGLEWVARIRSKSDNYATYYADSVKDRFTISRDDSPSMLYLQMNNLKTEDTAMYYCVYGRSYGGLGYWGQGTLVTVSA
VL: DIVLTQSPASLAVSLGQRATISCRASKSVSTSGYSYVHWYQQKPGQPPKLLIYLASNLESGVPARFSGSGSGTDFTLNIHPVEEEDAATYYCQHSRELPLTFGAGTKLELK
B8: B23 IgG (antibody, V domains shown)
VH: EVQLQQSGAELVRPGASVKLSCTASGINIKDYYMHWMKQRPEQDLEWIGWIDPGNGDAEYAPKFQGKATMTADTSSNTAYLQLSSLTSEDTAVYYCNEIAYWGQGTLVTVSA
VL: not shown
notes: also called B23 IgG1
B9: B4 IgG (antibody, V domains shown)
VH: EVKLVESGGGLVKPGGSLKLSCAASGFTFSNYGMSWVRQTPEKRLEWVATISSGGSYTYYPDSVKGRFTISRDNAKNTLYLQMSSLRSEDTAMYYCARHEGGGNPYFDYWGQGTTLTVSS
VL: DVLMTQTPLSLPVSLGDQASISCRSSQSLVHSNGNTYLHWYLQKPGQSPKLLIYKVSNRFSGVPDRFSGSGSGTDFTLKISRVEAEDLGVYFCSQNTLVPWTFGGGTKLEIK
notes: also called B4 IgG1; clone 4
B10: D3 IgG (antibody, V domains shown)
VH: EVQLEESGGGLVQPGGSLKLSCAASGFTFSNYGMSWVRQTPDKRLELVATINSNGGTTYYPDSVKGRFTISRDNAKNTLYLQMSSLKSEDSAMYYCARDRDAMDYWGQGTSVTVSS
VL: DVLMTQTPLSLPVSLGDQASISCRSSQSIVNSHGNTYLEWYLQKPGQSPKLLIYKVSNRFSGVPDRFSGSGSGTDFTLKISRVEAEDLGVYYCFQGSHVPWTFGGGTKLEIK

Key:
[1] = molecular target: T1, recombinant GST-SNAP25197 (UniProt P60880 1-197); test: direct ELISA; signal on GST-SNAP25197 against GST-SNAP25FL as reference
T1 construct: not shown: glutathione S-transferase (GST) tag
T1 sequence (P60880 1-197): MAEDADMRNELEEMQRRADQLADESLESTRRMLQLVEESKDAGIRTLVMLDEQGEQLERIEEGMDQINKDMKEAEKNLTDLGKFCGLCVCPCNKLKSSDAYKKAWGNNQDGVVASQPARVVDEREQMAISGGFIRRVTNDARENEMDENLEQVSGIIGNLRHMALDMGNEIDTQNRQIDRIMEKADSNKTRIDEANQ

[2] = molecular target: T1, recombinant GST-SNAP25197; test: BLI (Octet Red96); anti-GST biosensor dipped in 125 nM GST-SNAP25197, IgG as analyte
[3] = molecular target: T1, recombinant GST-SNAP25197; test: BLI (Octet Red96); IgG on AMC biosensor, GST-SNAP25197 as analyte; koff is the instrument's lowest limit, tentatively given
[4] = molecular target: T1, recombinant GST-SNAP25197; test: BLI (Octet Red96); anti-GST biosensor dipped in 250 nM GST-SNAP25197, IgG as analyte
recombinant GST-SNAP25FL = molecular target: T2, recombinant GST-SNAP25FL (UniProt P60880 1-206); test: BLI (Octet Red96); IgG on AMC biosensor, GST-SNAP25FL as analyte; KD from a tentative koff limit
T2 construct: also called GST-SANP25FL; not shown: glutathione S-transferase (GST) tag
T2 sequence (P60880 whole entry): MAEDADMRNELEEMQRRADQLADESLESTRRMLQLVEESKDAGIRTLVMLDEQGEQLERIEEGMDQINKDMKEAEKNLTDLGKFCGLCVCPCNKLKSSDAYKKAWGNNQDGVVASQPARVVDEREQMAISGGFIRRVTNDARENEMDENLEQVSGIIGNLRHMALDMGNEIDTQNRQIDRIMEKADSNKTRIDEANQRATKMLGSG

Binder	Ratio197/206 (A450 with SNAP25197 to A450 with SNAP25FL) [1] [ratio]	koff [3] [s⁻¹]	further results
B1	0.02	–	–
B2	0.03	–	–
B3	1040	≤ 1e-07	Kd [2]: 19.3 nM; koff [2]: 0.00494 s⁻¹; Kd [4]: 4.41 nM; koff [4]: 0.00122 s⁻¹
B4	973	≤ 1e-07	–
B5	996	–	–
B6	919	≤ 1e-07	–
B7	953	–	–
B8	0.92	–	Kd (recombinant GST-SNAP25FL): ≤ 1.04 pM
B9	0.83	–	Kd (recombinant GST-SNAP25FL): ≤ 1.05 pM
B10	12.9	–	–
